Where no end group is shown, it is not given here.
Columns and labels:
Bovine serum albumin = molecular target: T1, Bovine serum albumin (bovine, UniProt P02769 25-607); test: SPR, BSA immobilized, peptide as analyte
T1 construct: Immobilized control protein in SPR; also called BSA

Recombinant human EGFR [1] = molecular target: T2, Recombinant human EGFR (human, UniProt P00533 25-645, limits assumed); test: SPR, EGFR immobilized, peptide as analyte, 1:1 model
T2 construct: Immobilized by amine coupling on a carboxymethyl dextran SPR chip; also called epidermal growth factor receptor; surface-immobilized EGFR
Description: (§1) A carboxymethyl dextran gold sensor chip was activated by N-hydroxysuccinimide (NHS) and N-ethyl-N″-[3-(diethylamino)propyl] carbodiimide (EDC) at 25° C. using phosphate buffered saline pH 7.4 with 0.05% tween 20 as running buffer. […] Unreactive sites were blocked by flowing over the chip 1 M ethanolamine pH 8.5 at 10 μL/min for 8 minutes. […] The resulting sensograms were globally fitted using Scrubber2 software (BioLogic Software, Campbell, Australia) in a 1:1 binding model to determine the association rate (kₒₙ), dissociation rate (kd or koff), and dissociation constant KD.

[2] = molecular target: T3, HER2 recombinant human protein (human, UniProt P04626 23-652, limits assumed); test: SPR, HER2 immobilized, peptide as analyte, 1:1 model
T3 construct: Covalently attached to a carboxymethylated dextran SPR chip by EDC/NHS; also called HER2 protein; human epidermal growth factor receptor 2
Description: Then, the chip was blocked by passing EA for 8 minutes at a rate of 10 μL/min. […] Triplicate determinations were done at each concentration. The bound surface was regenerated by sequential injections of 10 mM glycine in PBST (pH 2.5).
The sensorgrams from SPR were globally treated using Scrubber 2® software where all traces were zeroed, cropped, aligned, and referenced. Kinetic constants ka and kd were determined by global fitting analyses of the titration curves using the 1:1 Lagmurian interaction model taking into account the mass transport. The equilibrium dissociation constant (KD) was calculated from the kd/ka ratio.
Both kinetic constants ka and kd were determined by global fitting analyses of the titration curves using the 1:1 Lagmurian interaction model in software Scrubber.

[3] = molecular target: T4, EGFR on A431 and MDA-MB-468 cells (UniProt P00533 25-1210, limits assumed); test: cell-based or functional assay
[4] = molecular target: T4, EGFR on A431 and MDA-MB-468 cells; test: confocal microscopy of cells incubated with FITC-labelled scrambled peptide for 30 min at 37 C
Description: For binding/internalization studies, 5×10⁵ cells were seeded in cover slips in 6 well culture plates overnight. […] Cells were fixed with 4% paraformaldehyde and cover slips were mounted on slides which contain a drop of SlowFade®. Cells were then imaged with an inverted Leica. DMIRE2 fluorescence microscope (Leica Biosystems Richmond Inc., Richmond, USA) using a Yokogawa CSUX1 confocal scanner unit. […] Cells were then centrifuged at 500 g for 5 min. Supernatant was removed and cell pellets were re-suspended in FACS solution. The cell suspension was then analyzed on a Beckman Coulter flow cytometer and data were analyzed using the Cell Questpro. A total of 10000 events were collected monitoring FITC.

Recombinant human EGFR [5] = molecular target: T2, Recombinant human EGFR; test: SPR, EGFR immobilized on the chip, scrambled peptide Pep25 injected; concentrations not given
Recombinant human EGFR [6] = molecular target: T2, Recombinant human EGFR; test: SPR, EGFR immobilized
Description: as §1

[7] = molecular target: HER2 on MDA-MB-361 and ZR-75-1 cells (human) (UniProt P04626); test: flow cytometry, FITC-labelled peptide 10 µM, MDA-MB-361 cells (blank cells 4.5±0.2)
[8] = molecular target: HER2 on MDA-MB-361 and ZR-75-1 cells (human) (UniProt P04626); test: flow cytometry, FITC-labelled peptide 10 µM, ZR-75-1 cells (blank cells 3.2±0.4)

T1 sequence (P02769 25-607 limits assumed): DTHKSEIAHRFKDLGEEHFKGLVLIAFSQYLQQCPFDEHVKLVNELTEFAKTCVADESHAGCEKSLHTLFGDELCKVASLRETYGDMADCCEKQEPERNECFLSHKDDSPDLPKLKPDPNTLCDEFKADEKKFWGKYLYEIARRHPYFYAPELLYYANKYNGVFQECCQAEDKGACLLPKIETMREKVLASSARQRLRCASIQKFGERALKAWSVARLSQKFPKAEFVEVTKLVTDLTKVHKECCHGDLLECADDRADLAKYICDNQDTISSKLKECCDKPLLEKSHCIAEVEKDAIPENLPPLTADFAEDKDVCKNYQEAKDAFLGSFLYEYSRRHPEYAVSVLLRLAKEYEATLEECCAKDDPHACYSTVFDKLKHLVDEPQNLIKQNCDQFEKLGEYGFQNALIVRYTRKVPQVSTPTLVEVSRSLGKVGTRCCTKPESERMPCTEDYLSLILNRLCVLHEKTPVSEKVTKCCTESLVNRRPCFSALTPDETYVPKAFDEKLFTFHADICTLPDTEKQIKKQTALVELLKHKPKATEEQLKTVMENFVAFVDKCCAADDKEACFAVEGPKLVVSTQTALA

binding result (Bovine serum albumin) | Kd (Recombinant human EGFR [1]) | koff (Recombinant human EGFR [1]) | kon (Recombinant human EGFR [1]) | Kd [2] | Binder | also measured
no binding | 4800 nM | 0.00581 s⁻¹ | 1210 M⁻¹ s⁻¹ | – | WSGENGPGYFDYEA (Designed cetuximab mimic peptide for EGFR, made by synthesis; also called No. 6) [Pep6] | –
no binding | 7200 nM | 0.103 s⁻¹ | 14300 M⁻¹ s⁻¹ | – | AEYDFYGPGNEGSW (also called No. 24) [Pep24] | –
– | – | – | – | 93 nM | VGYDTGLRAPNSVGSTKQ (not fully specified, Designed pertuzumab mimic peptide; Unlabelled in SPR; FITC-labelled in cell assays) [HER2-PEP7] | –
– | – | – | – | – | WSGENGPGFYDYEA (also: auristatin E (as 5-benzoylpentanoic ester) joined through a maleimidocaproyl hydrazone linker to a free thiol of the peptide, thiol position not given here) [Pep11-auristatin E PDC] | IC50 of cytotoxicity (sulforhodamine B assay, 72 h), A431 cells [3]: 0.0026 nM; IC50 of cytotoxicity (sulforhodamine B assay, 72 h), MDA-MB-468 cells [3]: 0.0013 nM
no binding | 595 nM | 0.0259 s⁻¹ | 43500 M⁻¹ s⁻¹ | – | WSGENGPGTFYDYEA (also called EGFR-PEP22; No. 22) [Pep22] | –
– | – | – | – | 56 nM | PGNDTGLSRAPENSGFTYQ (not fully specified, Designed pertuzumab mimic peptide; Unlabelled in SPR; FITC-labelled in cell assays) [HER2-PEP21] | –
– | – | – | – | – | SGEWAYDGYEPNFG (also: FITC label in cell assays, position not given here, Scrambled negative control; Unlabelled in SPR; FITC-conjugated in the cell assays; also called scrambled peptide; scrambled antibody mimic) [Pep25] | binding result [4]: no binding; binding result (Recombinant human EGFR [5]): no binding
no binding | 252 nM | 0.0252 s⁻¹ | 100000 M⁻¹ s⁻¹ | – | WSGENGPGFYDYEA (not fully specified, Designed cetuximab mimic peptide for EGFR; Unlabelled in SPR; also called EGFR-PEP11; FITC-Pep11) [Pep11] | IC50 of cytotoxicity (sulforhodamine B assay, 72 h), A431 cells [3]: 388 nM; IC50 of cytotoxicity (sulforhodamine B assay, 72 h), MDA-MB-468 cells [3]: 420 nM; fold KD relative to cetuximab (Recombinant human EGFR [6]): ~50 fold
– | – | – | – | 138000 nM | TSPQGYPNDAGFLGRESTN (not fully specified, Unlabelled in SPR; FITC-labelled in cell assays; also called control peptide; FITC-HER2-PEP22) [HER2-PEP22] | koff [2]: 0.0181 s⁻¹; kon [2]: 131 M⁻¹ s⁻¹; MFI [7]: 22.1 MFI; MFI [8]: 19.6 MFI

Source: patent publication US20170101474A1 (FORMUREX, published 2017)
